Measurements published in IntAct's records for PubMed 19966303.

How the values were obtained:
ypk1_yeast YPK1 = ypk1_yeast YPK1 (UniProt P12688)
atc5_yeast DNF1 = atc5_yeast DNF1 (UniProt P32660)
Chain of atc5_yeast DNF1 (P32660 whole entry): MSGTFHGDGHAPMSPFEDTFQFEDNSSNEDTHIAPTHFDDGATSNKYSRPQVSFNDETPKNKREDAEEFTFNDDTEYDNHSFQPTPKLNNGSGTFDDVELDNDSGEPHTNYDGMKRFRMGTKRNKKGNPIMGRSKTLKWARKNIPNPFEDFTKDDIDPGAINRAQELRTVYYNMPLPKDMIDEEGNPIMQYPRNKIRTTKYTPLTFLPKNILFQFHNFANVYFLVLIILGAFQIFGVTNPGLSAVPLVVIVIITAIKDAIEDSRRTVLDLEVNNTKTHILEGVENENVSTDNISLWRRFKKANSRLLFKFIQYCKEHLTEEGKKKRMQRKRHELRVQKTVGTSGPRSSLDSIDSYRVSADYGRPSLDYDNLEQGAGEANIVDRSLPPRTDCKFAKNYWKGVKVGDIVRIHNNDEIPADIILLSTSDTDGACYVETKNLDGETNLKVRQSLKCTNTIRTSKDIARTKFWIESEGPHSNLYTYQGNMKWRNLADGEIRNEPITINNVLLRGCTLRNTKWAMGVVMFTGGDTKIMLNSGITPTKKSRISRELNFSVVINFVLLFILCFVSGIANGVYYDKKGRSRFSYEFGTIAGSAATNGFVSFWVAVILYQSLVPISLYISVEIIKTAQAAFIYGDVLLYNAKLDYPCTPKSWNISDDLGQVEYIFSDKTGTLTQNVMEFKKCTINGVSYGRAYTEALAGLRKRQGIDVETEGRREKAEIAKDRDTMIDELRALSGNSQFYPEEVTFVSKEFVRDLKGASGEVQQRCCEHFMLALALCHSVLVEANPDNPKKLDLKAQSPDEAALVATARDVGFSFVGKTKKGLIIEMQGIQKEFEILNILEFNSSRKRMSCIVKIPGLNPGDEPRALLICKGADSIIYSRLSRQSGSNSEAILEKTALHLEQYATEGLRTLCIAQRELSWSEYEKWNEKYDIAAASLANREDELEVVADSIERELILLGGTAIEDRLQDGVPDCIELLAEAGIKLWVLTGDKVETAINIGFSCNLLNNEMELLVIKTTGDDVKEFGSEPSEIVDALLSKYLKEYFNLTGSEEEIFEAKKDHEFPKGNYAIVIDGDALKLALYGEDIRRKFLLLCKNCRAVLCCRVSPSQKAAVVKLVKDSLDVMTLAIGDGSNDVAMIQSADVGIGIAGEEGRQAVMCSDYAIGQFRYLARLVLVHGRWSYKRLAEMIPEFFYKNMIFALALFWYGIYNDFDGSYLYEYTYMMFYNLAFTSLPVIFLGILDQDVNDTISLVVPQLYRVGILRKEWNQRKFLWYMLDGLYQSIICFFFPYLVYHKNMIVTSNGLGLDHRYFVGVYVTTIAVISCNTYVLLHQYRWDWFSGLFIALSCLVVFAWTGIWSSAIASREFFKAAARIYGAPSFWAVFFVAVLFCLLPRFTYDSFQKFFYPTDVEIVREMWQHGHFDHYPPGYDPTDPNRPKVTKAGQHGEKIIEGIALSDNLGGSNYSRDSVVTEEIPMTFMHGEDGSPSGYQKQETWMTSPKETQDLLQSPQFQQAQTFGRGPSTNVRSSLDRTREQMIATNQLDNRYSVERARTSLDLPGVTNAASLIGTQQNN

Chain of ypk1_yeast YPK1 (P12688 whole entry): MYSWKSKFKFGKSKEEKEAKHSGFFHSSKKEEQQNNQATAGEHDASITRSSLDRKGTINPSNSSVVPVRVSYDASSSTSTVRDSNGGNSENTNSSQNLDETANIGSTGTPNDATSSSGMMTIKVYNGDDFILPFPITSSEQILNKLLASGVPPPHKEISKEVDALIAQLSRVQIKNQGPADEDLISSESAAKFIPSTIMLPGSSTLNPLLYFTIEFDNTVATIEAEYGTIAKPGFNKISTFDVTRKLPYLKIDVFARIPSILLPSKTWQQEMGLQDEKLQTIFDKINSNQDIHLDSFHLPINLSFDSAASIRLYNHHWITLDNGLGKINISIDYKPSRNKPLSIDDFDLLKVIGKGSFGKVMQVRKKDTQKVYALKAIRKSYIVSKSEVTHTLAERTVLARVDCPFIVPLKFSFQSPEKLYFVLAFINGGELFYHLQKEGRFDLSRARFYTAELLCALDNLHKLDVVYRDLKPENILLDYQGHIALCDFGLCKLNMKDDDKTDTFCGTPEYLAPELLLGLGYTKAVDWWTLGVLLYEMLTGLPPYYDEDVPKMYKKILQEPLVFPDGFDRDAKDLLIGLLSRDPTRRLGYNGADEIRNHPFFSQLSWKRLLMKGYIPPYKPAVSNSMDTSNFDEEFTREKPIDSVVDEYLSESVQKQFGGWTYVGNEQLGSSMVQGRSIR

Flippase kinase 1 (Saccharomyces cerevisiae), P53739 D621A
effect of a mutation on the interaction (ypk1_yeast YPK1): disrupting interaction
effect of a mutation on the interaction (atc5_yeast DNF1): disrupting interaction
